The supplement of paper PMC5998384

Experiments:
HeLa Kyoto [1] = test: solubility in G1/S (NP-40 vs SDS abundance) (log2 ratio); higher = more soluble; details: cell cycle stage: G1/S
HeLa Kyoto [2] = test: melting temperature (median over replicates), in situ; higher = more thermally stable
HeLa Kyoto [3] = test: solubility change mitosis vs G1/S (difference of NP-40 vs SDS log2 ratios) (log2 ratio difference); higher = more soluble in mitosis
HeLa Kyoto [4] = test: thermal stability score vs G1/S (z-score of summed log2 fold changes over temperatures); higher = more thermally stable than in G1/S
[5] = cell cycle stage: early G1 (4.5 h after nocodazole release)
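Throughout, for melting temperature (median over replicates), in situ: HeLa Kyoto cells synchronized by double thymidine or nocodazole block, proteins quantified by TMT10plex mass spectrometry, three independent biological replicates.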
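Throughout, for solubility change mitosis vs G1/S (difference of NP-40 vs SDS log2 ratios): synchronized HeLa Kyoto cells (double thymidine block for G1/S, nocodazole release for mitosis), protein amounts in NP-40 versus SDS lysates quantified by mass spectrometry, three biological replicates.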
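Throughout, for solubility in G1/S (NP-40 vs SDS abundance): HeLa Kyoto cells arrested at G1/S by double thymidine block, proteins quantified by TMT10plex mass spectrometry in mild NP-40 versus SDS extracts, three biological replicates.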
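Throughout, for thermal stability score vs G1/S (z-score of summed log2 fold changes over temperatures): synchronized HeLa Kyoto cells, proteins quantified by TMT10plex mass spectrometry, three biological replicates, mitosis taken 0.5 h after nocodazole release, G1/S directly after double thymidine block.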

Sequence	solubility in G1/S (log2) (HeLa Kyoto [1])	melting temperature (HeLa Kyoto [2]; cell cycle stage: G1/S) [°C]	melting temperature (HeLa Kyoto [2]; cell cycle stage: mitosis) [°C]	solubility change mitosis (log2) (HeLa Kyoto [3])	thermal stability score (HeLa Kyoto [4]; [5])	thermal stability score (HeLa Kyoto [4]; cell cycle stage: mitosis)
MAEGEDVPPLPTSSGDGWEKDLEEALEAGGCDLETLRNIIQGRPLPADLRAKVWKIALNVAGKGDSLASWDGILDLPEQNTIHKDCLQFIDQLSVPEEKAAELLLDIESVITFYCKSRNIKYSTSLSWIHLLKPLVHLQLPRSDLYNCFYAIMNKYIPRDCSQKGRPFHLFRLLIQYHEPELCSYLDTKKITPDSYALNWLGSLFACYCSTEVTQAIWDGYLQQADPFFIYFLMLIILVNAKEVILTQESDSKEEVIKFLENTPSSLNIEDIEDLFSLAQYYCSKTPASFRKDNHHLFGSTLLGIKDDDADLSQALCLAISVSEILQANQLQGEGVRFFVVDCRPAEQYNAGHLSTAFHLDSDLMLQNPSEFAQSVKSLLEAQKQSIESGSIAGGEHLCFMGSGREEEDMYMNMVLAHFLQKNKEYVSIASGGFMALQQHLADINVDGPENGYGHWIASTSGSRSSINSVDGESPNGSSDRGMKSLVNKMTVALKTKSVNVREKVISFIENTSTPVDRMSFNLPWPDRSCTERHVSSSDRVGKPYRGVKPVFSIGDEEEYDTDEIDSSSMSDDDRKEVVNIQTWINKPDVKHHFPCKEVKESGHMFPSHLLVTATHMYCLREIVSRKGLAYIQSRQALNSVVKITSKKKHPELITFKYGNSSASGIEILAIERYLIPNAGDATKAIKQQIMKVLDALES [TBC1D23]	0.0926	50.5	50	0.0232	0.43	0.147
MAAAAGSCARVAAWGGKLRRGLAVSRQAVRSPGPLAAAVAGAALAGAGAAWHHSRVSVAARDGSFTVSAQKNVEHGIIYIGKPSLRKQRFMQFSSLEHEGEYYMTPRDFLFSVMFEQMERKTSVKKLTKKDIEDTLSGIQTAGCGSTFFRDLGDKGLISYTEYLFLLTILTKPHSGFHVAFKMLDTDGNEMIEKREFFKLQKIISKQDDLMTVKTNETGYQEAIVKEPEINTTLQMRFFGKRGQRKLHYKEFRRFMENLQTEIQEMEFLQFSKGLSFMRKEDFAEWLLFFTNTENKDIYWKNVREKLSAGESISLDEFKSFCHFTTHLEDFAIAMQMFSLAHRPVRLAEFKRAVKVATGQELSNNILDTVFKIFDLDGDECLSHEEFLGVLKNRMHRGLWVPQHQSIQEYWKCVKKESIKGVKEVWKQAGKGLF [MICU2]	-0.297	52.1	52.1	-0.111	0.279	0.383
MWALRAAVRPGLRLSRVGRGRSAPRAAAPSCPARALAAVGRRSPGNLEGPWGGGRGLRADGGRSRTGDDEEEPEDADENAEEELLRGEPLLPAGTQRVCLVHPDVKWGPGKSQMTRAEWQVAEATALVHTLDGWSVVQTMVVSTKTPDRKLIFGKGNFEHLTEKIRGSPDITCVFLNVERMAAPTKKELEAAWGVEVFDRFTVVLHIFRCNARTKEARLQVALAEMPLHRSNLKRDVAHLYRGVGSRYIMGSGESFMQLQQRLLREKEAKIRKALDRLRKKRHLLRRQRTRREFPVISVVGYTNCGKTTLIKALTGDAAIQPRDQLFATLDVTAHAGTLPSRMTVLYVDTIGFLSQLPHGLIESFSATLEDVAHSDLILHVRDVSHPEAELQKCSVLSTLRGLQLPAPLLDSMVEVHNKVDLVPGYSPTEPNVVPVSALRGHGLQELKAELDAAVLKATGRQILTLRVRLAGAQLSWLYKEATVQEVDVIPEDGAADVRVIISNSAYGKFRKLFPG [GTPBP6]	-0.232	51.8	51.4	0.00881	-0.762	-0.462
MADQLYLENIDEFVTDQNKIVTYKWLSYTLGVHVNQAKQMLYDYVERKRKENSGAQLHVTYLVSGSLIQNGHSCHKVAVVREDKLEAVKSKLAVTASIHVYSIQKAMLKDSGPLFNTDYDILKSNLQNCSKFSAIQCAAAVPRAPAESSSSSKKFEQSHLHMSSETQANNELTTNGHGPPASKQVSQQPKGIMGMFASKAAAKTQETNKETKTEAKEVTNASAAGNKAPGKGNMMSNFFGKAAMNKFKVNLDSEQAVKEEKIVEQPTVSVTEPKLATPAGLKKSSKKAEPVKVLQKEKKRGKRVALSDDETKETENMRKKRRRIKLPESDSSEDEVFPDSPGAYEAESPSPPPPPSPPLEPVPKTEPEPPSVKSSSGENKRKRKRVLKSKTYLDGEGCIVTEKVYESESCTDSEEELNMKTSSVHRPPAMTVKKEPREERKGPKKGTAALGKANRQVSITGFFQRK [POLD3]	0.0553	47	48.1	-0.0027	0.776	2.8
MAAAAQLSLTQLSSGNPVYEKYYRQVDTGNTGRVLASDAAAFLKKSGLPDLILGKIWDLADTDGKGILNKQEFFVALRLVACAQNGLEVSLSSLNLAVPPPRFHDTSSPLLISGTSAAELPWAVKPEDKAKYDAIFDSLSPVNGFLSGDKVKPVLLNSKLPVDILGRVWELSDIDHDGMLDRDEFAVAMFLVYCALEKEPVPMSLPPALVPPSKRKTWVVSPAEKAKYDEIFLKTDKDMDGFVSGLEVREIFLKTGLPSTLLAHIWSLCDTKDCGKLSKDQFALAFHLISQKLIKGIDPPHVLTPEMIPPSDRASLQKNIIGSSPVADFSAIKELDTLNNEIVDLQREKNNVEQDLKEKEDTIKQRTSEVQDLQDEVQRENTNLQKLQAQKQQVQELLDELDEQKAQLEEQLKEVRKKCAEEAQLISSLKAELTSQESQISTYEEELAKAREELSRLQQETAELEESVESGKAQLEPLQQHLQDSQQEISSMQMKLMEMKDLENHNSQLNWCSSPHSILVNGATDYCSLSTSSSETANLNEHVEGQSNLESEPIHQESPARSSPELLPSGVTDENEVTTAVTEKVCSELDNNRHSKEEDPFNVDSSSLTGPVADTNLDFFQSDPFVGSDPFKDDPFGKIDPFGGDPFKGSDPFASDCFFRQSTDPFATSSTDPFSAANNSSITSVETLKHNDPFAPGGTVVAASDSATDPFASVFGNESFGGGFADFSTLSKVNNEDPFRSATSSSVSNVVITKNVFEETSVKSEDEPPALPPKIGTPTRPCPLPPGKRSINKLDSPDPFKLNDPFQPFPGNDSPKEKDPEIFCDPFTSATTTTNKEADPSNFANFSAYPSEEDMIEWAKRESEREEEQRLARLNQQEQEDLELAIALSKSEISEA [EPS15]	0.2	51	51.5	-0.117	0.399	1.19
MGLQACLLGLFALILSGKCSYSPEPDQRRTLPPGWVSLGRADPEEELSLTFALRQQNVERLSELVQAVSDPSSPQYGKYLTLENVADLVRPSPLTLHTVQKWLLAAGAQKCHSVITQDFLTCWLSIRQAELLLPGAEFHHYVGGPTETHVVRSPHPYQLPQALAPHVDFVGGLHRFPPTSSLRQRPEPQVTGTVGLHLGVTPSVIRKRYNLTSQDVGSGTSNNSQACAQFLEQYFHDSDLAQFMRLFGGNFAHQASVARVVGQQGRGRAGIEASLDVQYLMSAGANISTWVYSSPGRHEGQEPFLQWLMLLSNESALPHVHTVSYGDDEDSLSSAYIQRVNTELMKAAARGLTLLFASGDSGAGCWSVSGRHQFRPTFPASSPYVTTVGGTSFQEPFLITNEIVDYISGGGFSNVFPRPSYQEEAVTKFLSSSPHLPPSSYFNASGRAYPDVAALSDGYWVVSNRVPIPWVSGTSASTPVFGGILSLINEHRILSGRPPLGFLNPRLYQQHGAGLFDVTRGCHESCLDEEVEGQGFCSGPGWDPVTGWGTPNFPALLKTLLNP [TPP1]	0.472	53.8	53.9	-0.0648	-0.723	-1.17
